Measurements published in patent publication US20200353030A1 (BAR ILAN UNIVERSITY, published 2020).

B1: hRobo2 receptor ectodomain D4-D5 N426M (residues 311-509 of human Robo2) (receptor)
chain: RAPPQFVVRPRDQIVAQGRTVTFPCETKGNPQPAVFWQKEGSQNLLFPNQPQQPNSRCSVSPTGDLTITNIQRSDAGYYICQALTVAGSILAKAQLEVTDVLTDRPPPIILQGPAMQTLAVDGTALLKCKATGDPLPVISWLKEGFTFPGRDPRATIQEQGTLQIKNLRISDTGTYTCVATSSSGETSWSAVLDVTESG
modifications: additional 655 Da glycosylation found by mass spectroscopy (site not stated)
notes: also called WT hRobo2 D4-5; hRobo2 D4-D5 fragment; not shown: N-terminal FLAG tag of the modified pFastBac (pK503-9) vector; C-terminal hexahistidine tag

Columns and labels:
[1] = biological target: Robo2 of mouse dorsal root ganglion explants (mouse) (UniProt Q7TPD3); test: cell-based or functional assay
[2] = biological target: hRobo2 receptor ectodomain D4-D5 F357R mutant (human) (UniProt Q9HCK4); test: sedimentation equilibrium analytical ultracentrifugation, self-association; total molecular weight of the monomer in the same row 24686 Da; the KD column of this row prints 'monomer'
[3] = biological target: hRobo2 receptor ectodomain D4-D5 L394R mutant (human) (UniProt Q9HCK4); test: sedimentation equilibrium analytical ultracentrifugation, self-association; total molecular weight of the monomer in the same row 24720 Da; the KD column of this row prints 'monomer'
[4] = biological target: the molecule itself; test: SE-AUC, monomer-dimer fit, homodimerization in solution (10, 20 and 30 µM)
Method: All the sedimentation equilibrium experiments with hRobo2 receptor ectodomain D4-D5 constructs were performed using an XL-I analytical ultracentrifuge (Beckman-Coulter Inc.), with a UV-visible optics detection system, using an An60Ti rotor and 12-mm double sector centerpieces. Sedimentation curves were recorded and analyzed at 280 nm while spinning at 20° C. at 20,000 rpm in 10, 12, 14, and 20 hour time points, to assure that equilibrium was reached. Three concentrations (10, 20, and 30 μM) of WT hRobo2 receptor ectodomain D4-D5 (N426M) were measured. The F357R and L394R mutants were measured and analyzed in 20 μM. The molecular weight of WT hRobo2 receptor ectodomain D4-D5 fragment (N426M) was determined by mass spectroscopy using the Orbitrap Fusion Lumos with electron transfer dissociation (ETD), with both instrument and chromatography set up especially for the analysis of intact proteins. The recombinant protein includes an N′ terminal FLAG and C′ terminal 6XHis tags. […] The sedimentation coefficient distributions were calculated using SEDFIT and SEDPHAT (Gabrielson et al., 2007; Schuck et al., 2014).
The oligomeric state of hRobo2 receptor ectodomain D4-D5 in solution was determined by sedimentation equilibrium analytical ultracentrifugation (SE-AUC) (FIGS. 8A-8C). […]

[5] = biological target: B1; test: apparent KD; ELISA binding assay, method of the fit not stated

Chain of Robo2 of mouse dorsal root ganglion explants (mouse) (Q7TPD3 22-1470): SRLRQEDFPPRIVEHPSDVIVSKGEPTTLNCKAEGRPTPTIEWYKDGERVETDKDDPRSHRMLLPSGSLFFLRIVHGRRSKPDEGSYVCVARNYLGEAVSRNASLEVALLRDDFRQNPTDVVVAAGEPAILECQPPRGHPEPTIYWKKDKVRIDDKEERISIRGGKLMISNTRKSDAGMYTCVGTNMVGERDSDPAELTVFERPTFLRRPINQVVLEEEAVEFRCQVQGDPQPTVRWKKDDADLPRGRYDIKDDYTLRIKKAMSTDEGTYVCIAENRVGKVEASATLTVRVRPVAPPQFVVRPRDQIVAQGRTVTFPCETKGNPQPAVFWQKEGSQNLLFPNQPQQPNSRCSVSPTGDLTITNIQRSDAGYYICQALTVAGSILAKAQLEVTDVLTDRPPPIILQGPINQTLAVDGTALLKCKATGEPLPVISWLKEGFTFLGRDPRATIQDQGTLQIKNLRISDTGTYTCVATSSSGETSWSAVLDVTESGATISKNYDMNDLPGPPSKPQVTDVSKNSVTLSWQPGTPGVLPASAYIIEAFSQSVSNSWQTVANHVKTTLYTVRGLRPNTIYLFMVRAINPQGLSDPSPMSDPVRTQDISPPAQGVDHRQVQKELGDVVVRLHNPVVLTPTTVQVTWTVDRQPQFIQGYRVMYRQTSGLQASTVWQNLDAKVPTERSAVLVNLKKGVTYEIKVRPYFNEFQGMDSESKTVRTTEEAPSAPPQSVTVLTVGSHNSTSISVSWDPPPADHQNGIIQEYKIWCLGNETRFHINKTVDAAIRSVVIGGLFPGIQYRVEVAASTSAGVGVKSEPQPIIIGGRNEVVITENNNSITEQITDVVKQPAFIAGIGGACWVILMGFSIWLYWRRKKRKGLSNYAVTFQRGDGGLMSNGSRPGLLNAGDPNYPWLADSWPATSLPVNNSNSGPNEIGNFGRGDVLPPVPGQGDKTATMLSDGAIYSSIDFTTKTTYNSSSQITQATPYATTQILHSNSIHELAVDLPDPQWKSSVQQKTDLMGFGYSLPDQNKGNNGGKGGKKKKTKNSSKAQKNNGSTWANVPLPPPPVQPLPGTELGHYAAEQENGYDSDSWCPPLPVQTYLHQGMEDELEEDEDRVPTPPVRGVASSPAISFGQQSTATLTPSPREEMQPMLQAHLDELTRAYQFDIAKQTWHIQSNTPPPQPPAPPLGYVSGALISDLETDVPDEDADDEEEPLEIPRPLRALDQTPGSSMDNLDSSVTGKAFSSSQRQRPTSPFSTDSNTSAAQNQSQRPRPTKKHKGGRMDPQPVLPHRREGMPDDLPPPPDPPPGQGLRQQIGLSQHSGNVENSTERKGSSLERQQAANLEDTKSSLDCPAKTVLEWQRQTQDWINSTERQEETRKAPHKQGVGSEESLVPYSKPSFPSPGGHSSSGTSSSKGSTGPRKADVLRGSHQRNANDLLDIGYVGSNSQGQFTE

Molecule: hSlitN2 (from UniProt O94813 31-1121) (ligand)
- growth cone collapse of DRG explants 10 min after 5 nM SlitN2, without Fab [1]: 60%

Molecule: hRobo2 receptor ectodomain D4-D5 F357R mutant (from UniProt Q9HCK4 311-509)
- global distribution (Da) sedimentation equilibrium [2]: 24100 Da

Molecule: hRobo2 receptor ectodomain D4-D5 L394R mutant (from UniProt Q9HCK4 311-509)
- global distribution (Da) sedimentation equilibrium [3]: 24700 Da

Molecule: B1
- Kd [4]: 16.9 µM

B2: Fab antibody fragment AbD32836.1 (Fab, V domains shown)
VH: EVQLVESGGGLVKPGGSLRLSCAASGFTFSSYALSWVRQAPGKGLEWVGHIKSKTDGGATEYAAPVKGRFTISRDDSKNTLYLQMNSLKTEDTAVYYCARSYSEYIPLYAFAVWGQGTLVTVSS
VL: DIVLTQPPSVSGAPGQRVTISCSGSSSNIGSKYVSWYQQLPGTAPKLLIYYTSQRPSGVPDRFSGSKSGTSASLAITGLQAEDEADYYCYAWDSTSTSTVFGGGTKLTVLG
notes: HuCAL phage display Fab from BioRad AbD Serotec, raised against hRobo2 D4-5; also called Fab AbD32836.1; Fab #AbD32836.1
- Kd [5]: 0.18 µM
